This assay addresses T1, CP of tomato brown rugose fruit virus (genus Tobamovirus) (Tomato brown rugose fruit virus, UniProt A0A0S2SZX3 2-159).
T1 construct: also called ToMMV (as printed for this virus)
T1 sequence: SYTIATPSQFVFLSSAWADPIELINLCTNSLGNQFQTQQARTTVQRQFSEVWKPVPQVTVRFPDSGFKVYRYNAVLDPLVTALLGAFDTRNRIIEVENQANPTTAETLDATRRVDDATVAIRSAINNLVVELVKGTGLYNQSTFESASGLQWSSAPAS
Nature of the assay: dot blot; also Western blot and ELISA. For orientation: A western blot detects proteins with antibodies after separation by electrophoresis.

B1: monoclonal antibody C1 (antibody, V domains shown)
VH: EVQLQQSGAELVRPGALVKLSCKASGFNIKDYYMHWVKQRPEEGLEWIGWIDPENGNTIYDPKFQGKASITADTSSNTVRLQLSSLTSEDTAVYYCARERGAYWGQGTLVTVSA
VL: QIVLTQSPAIMSASPGEKVTMTCSASSSVSYMYWFQQKPGSSPRLLIYDTSNLASGVPVRFSGSGSGTSYSLTISRMEAEDAATFYCQQWSSYPLTFGAGTKLELK
notes: also called MAb C1
Consider B1, for which the binding result is “no binding”.

B2: monoclonal antibody N1 (antibody, V domains shown)
VH: EVQLVESGGGLVQPGGSLKLSCAASGFTFSSYGMSWVRQSPDKRLEWVATINNNGGSTYYPDSVKGRFTISRDNAKNTLYLQMSSLKSEDTAVYYCARDAAFDCWGQGTTLTVSS
VL: DIVMSQSPSSLAVSAGEKVTMSCKSSQSLLNSRTRKNYLAWYQQKPGQSPKLLIYWASTRESGVPDRFTGSGSGTDFTLTISSVQAEDLAVYYCKQSYNLFTFGSGTKLEIK
notes: also called MAb N1
Consider B2, for which the binding result is listed as “no binding”.

B3: monoclonal antibody M3 (antibody, V domains shown)
VH: EVILVESGGGLVKPGGSLRLSCAASGFTFSSHPLSWVRQSPDKRLEWVASISSGGRYTYYPDSVKGRLTISRDNAKNILYLHMNSLRSEDTAMYYCARRGSTATAWFAYWGQGTLVTVSA
VL: DIALTQSPASLAVSLGQRATISCKASQSVDYDGDSYMSWYQQKPGQPPKLLIYGASNLESGIPARFSGSGSGTDFTLNIHPVEEEDAATYYCQQSNEDLPTFGGGTKLEIK
notes: also called MAb M3
In the case of B3, the binding result was “no binding”.

B4: monoclonal antibody M2 (antibody, V domains shown)
VH: EVQLVESGGGLVQPKGSLKLSCAASDFTFNTHSMNWVRQAPGKVLEWIARIRSQSNNYATYYADSVKDRFTISRDDSQNMFYLQMNNLKTEDTAMYYCAGDYYGPFAYWGQGTLVAVSA
VL: DVLMTQTPLSLPVSLGDQASISCRSGQSLVHSNGNTYLHWYLQKPGQSPKLLIYKVSNRFSGVPDRFSGSGSGTDFTLKISRVEAEDLGVYFCSQSTHVPWTFGGGTKLEIK
notes: also called MAb M2
With B4, the binding result is recorded as “no binding”.

B5: monoclonal antibody M1 (antibody, V domains shown)
VH: QVQLQQSGPELVRPGASVKMSCKTSGYPFSTYWMHWVKQRPGQGLEWIGMIKPSNSETSLNQKFKDKATLNVDKSSNTAYMQLNSLTSEDSGVYYCARAGDSWGQGTTLTVSS
VL: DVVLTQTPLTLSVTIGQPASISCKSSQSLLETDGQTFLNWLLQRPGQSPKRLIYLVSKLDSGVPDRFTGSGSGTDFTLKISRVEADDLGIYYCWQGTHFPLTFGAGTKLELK
notes: also called MAb M1
With B5, the binding result was “no binding”.

Values taken from US20240239872A1 (SHANDONG AGRICULTURAL UNIVERSITY, published 2024).
